Data taken from patent US20210388087A1 (Chugai, published 2021).

target: T1, CD3 epsilon homodimer protein (UniProt P07766 23-126); experiment: SPR, antibody over immobilised CD3e homodimer;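 note: SPR at 25 °C with CD3 epsilon homodimer amine-coupled to a CM4 sensor chip and antibody flowed over as analyte in HBS-EP+ running buffer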
T1 construct: also called CD3 (CD3 epsilon)
T1 sequence (P07766 23-126): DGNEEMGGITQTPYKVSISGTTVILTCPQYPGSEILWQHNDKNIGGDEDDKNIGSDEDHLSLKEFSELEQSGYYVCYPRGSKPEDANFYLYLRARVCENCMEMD
Description: An appropriate amount of CD3 epsilon homodimer protein was immobilized onto Sensor chip CM4 (GE Healthcare Japan Corp.) by the amine coupling method. Then, the antibody having an appropriate concentration was injected thereto as an analyte and allowed to interact with the CD3 epsilon homodimer protein on the sensor chip. Then, the sensor chip was regenerated by the injection of 10 mmol/L glycine-HCl (pH 1.5). The assay was conducted at 25 degrees C., and HBS-EP+(GE Healthcare Japan Corp.) was used as a running buffer. […] Each parameter was calculated using Biacore T200 Evaluation Software (GE Healthcare Japan Corp.).

| Binder | KD ratio to GLS3000 |
| --- | --- |
| CE115HA000/GLS3000 S56M (antibody, IgG1, name in Kabat numbering, V domains shown, one-arm IgG1) VH: QVQLVESGGGVVQPGRSLRLSCAASGFTFSNAWMHWVRQAPGKGLEWVAQIKAKSNNYATYYAESVKGRFTISRDDSKNSLYLQMNSLKTEDTAVYYCRYVHYGAYYGVDAWGQGTTVTVSS VL: DIVMTQSPLSLPVTPGEPASISCRSSQSLVHSNRNTYLHWYQQKPGQAPRLLIYKVSNRFMGVPDRFSGSGSGTDFTLKISRVEAEDVGVYYCGQGTQVPYTFGQGTKLEIK | 0.93 |
| CE115HA000/GLS3000 S56N (antibody, IgG1, name in Kabat numbering, V domains shown, one-arm IgG1) VH: QVQLVESGGGVVQPGRSLRLSCAASGFTFSNAWMHWVRQAPGKGLEWVAQIKAKSNNYATYYAESVKGRFTISRDDSKNSLYLQMNSLKTEDTAVYYCRYVHYGAYYGVDAWGQGTTVTVSS VL: DIVMTQSPLSLPVTPGEPASISCRSSQSLVHSNRNTYLHWYQQKPGQAPRLLIYKVSNRFNGVPDRFSGSGSGTDFTLKISRVEAEDVGVYYCGQGTQVPYTFGQGTKLEIK | 0.9 |
| CE115HA000/GLS3000 S56P (antibody, IgG1, name in Kabat numbering, V domains shown, one-arm IgG1) VH: QVQLVESGGGVVQPGRSLRLSCAASGFTFSNAWMHWVRQAPGKGLEWVAQIKAKSNNYATYYAESVKGRFTISRDDSKNSLYLQMNSLKTEDTAVYYCRYVHYGAYYGVDAWGQGTTVTVSS VL: DIVMTQSPLSLPVTPGEPASISCRSSQSLVHSNRNTYLHWYQQKPGQAPRLLIYKVSNRFPGVPDRFSGSGSGTDFTLKISRVEAEDVGVYYCGQGTQVPYTFGQGTKLEIK | 0.98 |
| CE115HA000/GLS3000 S56Q (antibody, IgG1, name in Kabat numbering, V domains shown, one-arm IgG1) VH: QVQLVESGGGVVQPGRSLRLSCAASGFTFSNAWMHWVRQAPGKGLEWVAQIKAKSNNYATYYAESVKGRFTISRDDSKNSLYLQMNSLKTEDTAVYYCRYVHYGAYYGVDAWGQGTTVTVSS VL: DIVMTQSPLSLPVTPGEPASISCRSSQSLVHSNRNTYLHWYQQKPGQAPRLLIYKVSNRFQGVPDRFSGSGSGTDFTLKISRVEAEDVGVYYCGQGTQVPYTFGQGTKLEIK | 0.97 |
| CE115HA000/GLS3000 S56R (antibody, IgG1, name in Kabat numbering, V domains shown, one-arm IgG1) VH: QVQLVESGGGVVQPGRSLRLSCAASGFTFSNAWMHWVRQAPGKGLEWVAQIKAKSNNYATYYAESVKGRFTISRDDSKNSLYLQMNSLKTEDTAVYYCRYVHYGAYYGVDAWGQGTTVTVSS VL: DIVMTQSPLSLPVTPGEPASISCRSSQSLVHSNRNTYLHWYQQKPGQAPRLLIYKVSNRFRGVPDRFSGSGSGTDFTLKISRVEAEDVGVYYCGQGTQVPYTFGQGTKLEIK | 1.15 |
| CE115HA000/GLS3000 S56T (antibody, IgG1, name in Kabat numbering, V domains shown, one-arm IgG1) VH: QVQLVESGGGVVQPGRSLRLSCAASGFTFSNAWMHWVRQAPGKGLEWVAQIKAKSNNYATYYAESVKGRFTISRDDSKNSLYLQMNSLKTEDTAVYYCRYVHYGAYYGVDAWGQGTTVTVSS VL: DIVMTQSPLSLPVTPGEPASISCRSSQSLVHSNRNTYLHWYQQKPGQAPRLLIYKVSNRFTGVPDRFSGSGSGTDFTLKISRVEAEDVGVYYCGQGTQVPYTFGQGTKLEIK | 1.01 |
| CE115HA000/GLS3000 S56V (antibody, IgG1, name in Kabat numbering, V domains shown, one-arm IgG1) VH: QVQLVESGGGVVQPGRSLRLSCAASGFTFSNAWMHWVRQAPGKGLEWVAQIKAKSNNYATYYAESVKGRFTISRDDSKNSLYLQMNSLKTEDTAVYYCRYVHYGAYYGVDAWGQGTTVTVSS VL: DIVMTQSPLSLPVTPGEPASISCRSSQSLVHSNRNTYLHWYQQKPGQAPRLLIYKVSNRFVGVPDRFSGSGSGTDFTLKISRVEAEDVGVYYCGQGTQVPYTFGQGTKLEIK | 0.94 |
| CE115HA000/GLS3000 S56W (antibody, IgG1, name in Kabat numbering, V domains shown, one-arm IgG1) VH: QVQLVESGGGVVQPGRSLRLSCAASGFTFSNAWMHWVRQAPGKGLEWVAQIKAKSNNYATYYAESVKGRFTISRDDSKNSLYLQMNSLKTEDTAVYYCRYVHYGAYYGVDAWGQGTTVTVSS VL: DIVMTQSPLSLPVTPGEPASISCRSSQSLVHSNRNTYLHWYQQKPGQAPRLLIYKVSNRFWGVPDRFSGSGSGTDFTLKISRVEAEDVGVYYCGQGTQVPYTFGQGTKLEIK | 1.12 |
| CE115HA000/GLS3000 S56Y (antibody, IgG1, name in Kabat numbering, V domains shown, one-arm IgG1) VH: QVQLVESGGGVVQPGRSLRLSCAASGFTFSNAWMHWVRQAPGKGLEWVAQIKAKSNNYATYYAESVKGRFTISRDDSKNSLYLQMNSLKTEDTAVYYCRYVHYGAYYGVDAWGQGTTVTVSS VL: DIVMTQSPLSLPVTPGEPASISCRSSQSLVHSNRNTYLHWYQQKPGQAPRLLIYKVSNRFYGVPDRFSGSGSGTDFTLKISRVEAEDVGVYYCGQGTQVPYTFGQGTKLEIK | 1.1 |
| CE115HA000/GLS3000 T31D (antibody, IgG1, name in Kabat numbering, V domains shown, one-arm IgG1) VH: QVQLVESGGGVVQPGRSLRLSCAASGFTFSNAWMHWVRQAPGKGLEWVAQIKAKSNNYATYYAESVKGRFTISRDDSKNSLYLQMNSLKTEDTAVYYCRYVHYGAYYGVDAWGQGTTVTVSS VL: DIVMTQSPLSLPVTPGEPASISCRSSQSLVHSNRNDYLHWYQQKPGQAPRLLIYKVSNRFSGVPDRFSGSGSGTDFTLKISRVEAEDVGVYYCGQGTQVPYTFGQGTKLEIK | 30.9 |
| CE115HA000/GLS3000 T31E (antibody, IgG1, name in Kabat numbering, V domains shown, one-arm IgG1) VH: QVQLVESGGGVVQPGRSLRLSCAASGFTFSNAWMHWVRQAPGKGLEWVAQIKAKSNNYATYYAESVKGRFTISRDDSKNSLYLQMNSLKTEDTAVYYCRYVHYGAYYGVDAWGQGTTVTVSS VL: DIVMTQSPLSLPVTPGEPASISCRSSQSLVHSNRNEYLHWYQQKPGQAPRLLIYKVSNRFSGVPDRFSGSGSGTDFTLKISRVEAEDVGVYYCGQGTQVPYTFGQGTKLEIK | 1.59 |
| CE115HA000/GLS3000 T31I (antibody, IgG1, name in Kabat numbering, V domains shown, one-arm IgG1) VH: QVQLVESGGGVVQPGRSLRLSCAASGFTFSNAWMHWVRQAPGKGLEWVAQIKAKSNNYATYYAESVKGRFTISRDDSKNSLYLQMNSLKTEDTAVYYCRYVHYGAYYGVDAWGQGTTVTVSS VL: DIVMTQSPLSLPVTPGEPASISCRSSQSLVHSNRNIYLHWYQQKPGQAPRLLIYKVSNRFSGVPDRFSGSGSGTDFTLKISRVEAEDVGVYYCGQGTQVPYTFGQGTKLEIK | 1.1 |
| CE115HA000/GLS3000 T31K (antibody, IgG1, name in Kabat numbering, V domains shown, one-arm IgG1) VH: QVQLVESGGGVVQPGRSLRLSCAASGFTFSNAWMHWVRQAPGKGLEWVAQIKAKSNNYATYYAESVKGRFTISRDDSKNSLYLQMNSLKTEDTAVYYCRYVHYGAYYGVDAWGQGTTVTVSS VL: DIVMTQSPLSLPVTPGEPASISCRSSQSLVHSNRNKYLHWYQQKPGQAPRLLIYKVSNRFSGVPDRFSGSGSGTDFTLKISRVEAEDVGVYYCGQGTQVPYTFGQGTKLEIK | 0.88 |
| CE115HA000/GLS3000 T31N (antibody, IgG1, name in Kabat numbering, V domains shown, one-arm IgG1) VH: QVQLVESGGGVVQPGRSLRLSCAASGFTFSNAWMHWVRQAPGKGLEWVAQIKAKSNNYATYYAESVKGRFTISRDDSKNSLYLQMNSLKTEDTAVYYCRYVHYGAYYGVDAWGQGTTVTVSS VL: DIVMTQSPLSLPVTPGEPASISCRSSQSLVHSNRNNYLHWYQQKPGQAPRLLIYKVSNRFSGVPDRFSGSGSGTDFTLKISRVEAEDVGVYYCGQGTQVPYTFGQGTKLEIK | 4.46 |
| CE115HA000/GLS3000 T31P (antibody, IgG1, name in Kabat numbering, V domains shown, one-arm IgG1) VH: QVQLVESGGGVVQPGRSLRLSCAASGFTFSNAWMHWVRQAPGKGLEWVAQIKAKSNNYATYYAESVKGRFTISRDDSKNSLYLQMNSLKTEDTAVYYCRYVHYGAYYGVDAWGQGTTVTVSS VL: DIVMTQSPLSLPVTPGEPASISCRSSQSLVHSNRNPYLHWYQQKPGQAPRLLIYKVSNRFSGVPDRFSGSGSGTDFTLKISRVEAEDVGVYYCGQGTQVPYTFGQGTKLEIK | 10.8 |
| CE115HA000/GLS3000 T92A (antibody, IgG1, name in Kabat numbering, V domains shown, one-arm IgG1) VH: QVQLVESGGGVVQPGRSLRLSCAASGFTFSNAWMHWVRQAPGKGLEWVAQIKAKSNNYATYYAESVKGRFTISRDDSKNSLYLQMNSLKTEDTAVYYCRYVHYGAYYGVDAWGQGTTVTVSS VL: DIVMTQSPLSLPVTPGEPASISCRSSQSLVHSNRNTYLHWYQQKPGQAPRLLIYKVSNRFSGVPDRFSGSGSGTDFTLKISRVEAEDVGVYYCGQGAQVPYTFGQGTKLEIK | 1.35 |
| CE115HA000/GLS3000 T92D (antibody, IgG1, name in Kabat numbering, V domains shown, one-arm IgG1) VH: QVQLVESGGGVVQPGRSLRLSCAASGFTFSNAWMHWVRQAPGKGLEWVAQIKAKSNNYATYYAESVKGRFTISRDDSKNSLYLQMNSLKTEDTAVYYCRYVHYGAYYGVDAWGQGTTVTVSS VL: DIVMTQSPLSLPVTPGEPASISCRSSQSLVHSNRNTYLHWYQQKPGQAPRLLIYKVSNRFSGVPDRFSGSGSGTDFTLKISRVEAEDVGVYYCGQGDQVPYTFGQGTKLEIK | 11.2 |
| CE115HA000/GLS3000 T92E (antibody, IgG1, name in Kabat numbering, V domains shown, one-arm IgG1) VH: QVQLVESGGGVVQPGRSLRLSCAASGFTFSNAWMHWVRQAPGKGLEWVAQIKAKSNNYATYYAESVKGRFTISRDDSKNSLYLQMNSLKTEDTAVYYCRYVHYGAYYGVDAWGQGTTVTVSS VL: DIVMTQSPLSLPVTPGEPASISCRSSQSLVHSNRNTYLHWYQQKPGQAPRLLIYKVSNRFSGVPDRFSGSGSGTDFTLKISRVEAEDVGVYYCGQGEQVPYTFGQGTKLEIK | 19.6 |
| CE115HA000/GLS3000 T92I (antibody, IgG1, name in Kabat numbering, V domains shown, one-arm IgG1) VH: QVQLVESGGGVVQPGRSLRLSCAASGFTFSNAWMHWVRQAPGKGLEWVAQIKAKSNNYATYYAESVKGRFTISRDDSKNSLYLQMNSLKTEDTAVYYCRYVHYGAYYGVDAWGQGTTVTVSS VL: DIVMTQSPLSLPVTPGEPASISCRSSQSLVHSNRNTYLHWYQQKPGQAPRLLIYKVSNRFSGVPDRFSGSGSGTDFTLKISRVEAEDVGVYYCGQGIQVPYTFGQGTKLEIK | 1.91 |
| CE115HA000/GLS3000 T92L (antibody, IgG1, name in Kabat numbering, V domains shown, one-arm IgG1) VH: QVQLVESGGGVVQPGRSLRLSCAASGFTFSNAWMHWVRQAPGKGLEWVAQIKAKSNNYATYYAESVKGRFTISRDDSKNSLYLQMNSLKTEDTAVYYCRYVHYGAYYGVDAWGQGTTVTVSS VL: DIVMTQSPLSLPVTPGEPASISCRSSQSLVHSNRNTYLHWYQQKPGQAPRLLIYKVSNRFSGVPDRFSGSGSGTDFTLKISRVEAEDVGVYYCGQGLQVPYTFGQGTKLEIK | 1.61 |
| CE115HA000/GLS3000 T92P (antibody, IgG1, name in Kabat numbering, V domains shown, one-arm IgG1) VH: QVQLVESGGGVVQPGRSLRLSCAASGFTFSNAWMHWVRQAPGKGLEWVAQIKAKSNNYATYYAESVKGRFTISRDDSKNSLYLQMNSLKTEDTAVYYCRYVHYGAYYGVDAWGQGTTVTVSS VL: DIVMTQSPLSLPVTPGEPASISCRSSQSLVHSNRNTYLHWYQQKPGQAPRLLIYKVSNRFSGVPDRFSGSGSGTDFTLKISRVEAEDVGVYYCGQGPQVPYTFGQGTKLEIK | 26.7 |
